Assay results: US20150139990A1 (DAINIPPON SUMITOMO PHARMA, published 2015)
Where a chain is given by its changes, count along the chain named. Names and notes keep the numbering of the source.

T1: cCD81 (chicken CD81 construct with C-terminal V5 and 6xHis tags) (chicken)
T1 construct: as m30; not shown: C-terminal V5 and 6xHis tags
T1 chain: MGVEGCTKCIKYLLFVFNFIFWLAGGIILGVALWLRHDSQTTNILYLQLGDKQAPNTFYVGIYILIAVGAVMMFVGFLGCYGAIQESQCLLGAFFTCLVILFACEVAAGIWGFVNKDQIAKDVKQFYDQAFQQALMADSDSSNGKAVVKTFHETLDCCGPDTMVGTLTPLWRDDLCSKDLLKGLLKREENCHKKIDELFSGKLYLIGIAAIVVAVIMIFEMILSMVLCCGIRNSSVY

T2: c80h human-chicken CD81 chimera (chicken; human, UniProt P60033 1-236)
T2 construct: as m30; not shown: C-terminal V5 and 6xHis tags
T2 chain: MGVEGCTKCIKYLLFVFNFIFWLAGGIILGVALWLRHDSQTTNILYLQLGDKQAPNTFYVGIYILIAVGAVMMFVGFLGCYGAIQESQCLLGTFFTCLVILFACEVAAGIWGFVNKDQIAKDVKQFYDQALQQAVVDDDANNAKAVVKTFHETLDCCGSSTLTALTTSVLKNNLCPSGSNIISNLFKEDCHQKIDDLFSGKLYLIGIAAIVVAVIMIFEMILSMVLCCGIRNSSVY

T3: c175h human-chicken CD81 chimera (chicken; human)
T3 construct: as m30; not shown: C-terminal V5 and 6xHis tags
T3 chain: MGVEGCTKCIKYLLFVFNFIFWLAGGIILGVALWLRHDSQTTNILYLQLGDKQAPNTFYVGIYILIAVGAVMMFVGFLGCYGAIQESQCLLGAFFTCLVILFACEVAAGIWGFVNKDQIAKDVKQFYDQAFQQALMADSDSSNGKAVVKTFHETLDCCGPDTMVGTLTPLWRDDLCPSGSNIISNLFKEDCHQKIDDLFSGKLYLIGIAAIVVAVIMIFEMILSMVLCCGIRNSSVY

T4: c190h human-chicken CD81 chimera (chicken; human)
T4 construct: as m30; not shown: C-terminal V5 and 6xHis tags
T4 chain: T1 chain with K193Q, E197D

T5: h175c human-chicken CD81 chimera (human; chicken, UniProt P60033 1-236)
T5 construct: as m30; not shown: C-terminal V5 and 6xHis tags
T5 chain: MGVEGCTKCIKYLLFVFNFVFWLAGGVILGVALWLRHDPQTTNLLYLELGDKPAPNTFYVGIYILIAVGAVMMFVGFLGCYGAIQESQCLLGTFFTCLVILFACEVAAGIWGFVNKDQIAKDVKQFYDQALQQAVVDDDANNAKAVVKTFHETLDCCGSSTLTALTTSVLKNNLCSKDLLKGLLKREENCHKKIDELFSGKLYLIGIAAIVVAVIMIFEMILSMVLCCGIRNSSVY

T6: h190c human-chicken CD81 chimera (human; chicken, UniProt P60033 1-236)
T6 construct: as m30; not shown: C-terminal V5 and 6xHis tags
T6 chain: T2 chain with I20V, I27V, S39P, I44L, Q48E, Q53P, Q192K, D196E

T7: human CD81 mutant Y127W (human, UniProt P60033 1-236, limits assumed)
T7 construct: as m30; not shown: C-terminal V5 and 6xHis tags
T7 sequence: T2 chain with I20V, I27V, S39P, I44L, Q48E, Q53P, Y127W

B1: 002-A07 IgG4 antibody (antibody)
heavy: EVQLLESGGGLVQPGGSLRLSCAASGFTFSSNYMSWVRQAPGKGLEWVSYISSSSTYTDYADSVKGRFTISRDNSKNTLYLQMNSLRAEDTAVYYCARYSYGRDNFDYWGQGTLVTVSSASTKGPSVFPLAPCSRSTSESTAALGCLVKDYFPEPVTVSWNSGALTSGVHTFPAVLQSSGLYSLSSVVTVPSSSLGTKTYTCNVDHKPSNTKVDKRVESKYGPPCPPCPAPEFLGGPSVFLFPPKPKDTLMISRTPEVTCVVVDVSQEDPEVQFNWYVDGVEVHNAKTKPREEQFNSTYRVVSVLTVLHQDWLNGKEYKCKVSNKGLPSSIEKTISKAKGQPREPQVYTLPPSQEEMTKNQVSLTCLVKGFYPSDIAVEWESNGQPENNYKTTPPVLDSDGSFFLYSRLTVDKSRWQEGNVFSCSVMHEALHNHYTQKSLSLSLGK
light: QSVLTQPPSASGTPGQRVTISCTGSTSNIGAGYDTHWYQQLPGTAPKLLIYGNSNRPSGVPDRFSGSKSGTSASLAISGLRSEDEADYYCQSYDTNLSVWVFGGGTKLTVLGQPKAAPSVTLFPPSSEELQANKATLVCLISDFYPGAVTVAWKADSSPVKAGVETTTPSKQSNNKYAASSYLSLTPEQWKSHRSYSCQVTHEGSTVEKTVAPTECS
notes: human IgG4 S228P, lambda light chain
B2: 002-A07 S115A (antibody, human IgG4 S228P, lambda, V domains shown)
VH: EVQLLESGGGLVQPGGSLRLSCAASGFTFSSNYMSWVRQAPGKGLEWVSYISSSSTYTDYADSVKGRFTISRDNSKNTLYLQMNSLRAEDTAVYYCARYSYGRDNFDYWGQGTLVTVSS
VL: QSVLTQPPSASGTPGQRVTISCTGSTSNIGAGYDTHWYQQLPGTAPKLLIYGNSNRPSGVPDRFSGSKSGTSASLAISGLRSEDEADYYCQSYDTNLAVWVFGGGTKLTVLG
notes: IgG4 S228P; glycosylation site mutant of 002-A07 VL

Key:
Experiment in all cases: ELISA
[1] = molecular target: T1, cCD81 (chicken CD81 construct with …)
Experimental: (§1) To identify the epitopes to which each of the anti-human CD81 antibodies (002-A07 and 005-001) bind, ELISA assays were performed using human-chicken CD81 chimera constructs listed in Table 6. Each construct was transiently expressed in CHO cells and its cell membrane fraction was solubilized with detergents and immobilized onto a plate.
(§2) As control antibodies, human IgG4 antibody (Acris Antibodies GmbH) and mouse IgG antibody were used. Human-chicken chimera protein was captured via His tag introduced into the C-terminal by adding the membrane fraction (5 μg/100 μL/well) prepared (1) above to Ni NTA His Sorb plate (QIAGEN) in the presence of 1% (w/v) n-Octylglucoside and incubating for 3 hours at 4° C. After washing with TBST (TBS, 0.05% (v/v) Tween 20) three times, an anti-human CD81 antibody or a control antibody (50 μL/well) was added and incubated for 1 hour at room temperature (RT). After washing, 2000 fold-diluted HRP-labeled anti-human IgG4 antibody (Mouse anti-human IgG₄ HRP clone:HP6023 Beckman Coulter) or 1000 fold-diluted HRP-labeled anti-mouse IgG antibody (Invitrogen) (50 μL/well) were added. The plate was incubated for 1 hour at RT and washed with TBST three times. And then, peroxidase activity was determined by TMB One solution (Promega; Code 53025). The reaction was stopped with 2 M H₂SO₄ (50 μL) and absorbance at 450 nm was measured.

[2] = molecular target: T2, c80h human-chicken CD81 chimera
Experimental: as §1, §2

[3] = molecular target: T3, c175h human-chicken CD81 chimera
Experimental: as §1, §2

[4] = molecular target: T4, c190h human-chicken CD81 chimera
Experimental: as §1, §2

[5] = molecular target: T5, h175c human-chicken CD81 chimera
Experimental: as §1, §2

[6] = molecular target: T6, h190c human-chicken CD81 chimera
Experimental: as §1, §2

human CD81 mutant Y127W = molecular target: T7, human CD81 mutant Y127W

| Binder | absorbance at 450 nm relative to hCD81 [1] [%] | binding result [2] | absorbance at 450 nm relative to hCD81 [3] [%] | absorbance at 450 nm relative to hCD81 [4] [%] | binding result [5] | binding result [6] | relative binding affinity (human CD81 mutant Y127W) [%] |
| --- | --- | --- | --- | --- | --- | --- | --- |
| B1 | < 10 | binds | < 10 | < 10 | binds | binds |  |
| B2 |  |  |  |  |  |  | < 20 |
